# Measured values from the supplement of paper PMC9112550, “Optimization of the antimicrobial peptide Bac7 by deep mutational scanning” (BMC Biology, 2022).
# Test system: Escherichia coli TOP10
# Assay: shrunken log2 fold change of peptide-encoding DNA abundance (4.5 h post-induction vs induction); higher = less antimicrobial activity (less host growth inhibition)
# Conditions: time post-induction: 4.5 h; library: site-saturation at positions 5, 18, 19, 20
# 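Also: peptides expressed intracellularly from a pBAD plasmid library in pooled LB shake-flask culture, induced with 0.3% L-arabinose, DNA abundance read by NGS, three biological replicates, DESeq2 with apeglm shrinkage.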
row,Sequence,shrunken log2 fold change
1,RRIRHRPPRLPRPRPRPTKQPRP,-0.0343
2,RRIRWRPPRLPRPRPRPPGVPRP,0.525
3,RRIRFRPPRLPRPRPRPPSDPRP,0.201
4,RRIRGRPPRLPRPRPRPEMWPRP,1.76
5,RRIRIRPPRLPRPRPRPMIDPRP,-1.15
6,RRIRCRPPRLPRPRPRPGAFPRP,0.138
7,RRIRYRPPRLPRPRPRPIMVPRP,-0.152
8,RRIRQRPPRLPRPRPRPFYIPRP,0.0172
9,RRIRDRPPRLPRPRPRPTGHPRP,0.502
10,RRIRPRPPRLPRPRPRPASHPRP,0.0473
11,RRIRMRPPRLPRPRPRPVHKPRP,-0.0081
12,RRIRARPPRLPRPRPRPTVWPRP,0.552
13,RRIRKRPPRLPRPRPRPDQAPRP,-0.029
14,RRIRLRPPRLPRPRPRPWFWPRP,-0.0455
15,RRIRTRPPRLPRPRPRPTSPPRP,0.119
16,RRIRHRPPRLPRPRPRPPSKPRP,-0.122
17,RRIRLRPPRLPRPRPRPMKHPRP,-0.409
18,RRIRARPPRLPRPRPRPRVCPRP,0.0904
19,RRIRYRPPRLPRPRPRPRFSPRP,-0.144
20,RRIRCRPPRLPRPRPRPCLYPRP,-0.117
21,RRIRPRPPRLPRPRPRPKSWPRP,0.258
22,RRIRSRPPRLPRPRPRPERWPRP,1.14
23,RRIRKRPPRLPRPRPRPDQFPRP,-0.0391
24,RRIRIRPPRLPRPRPRPLDSPRP,-0.0212
25,RRIRYRPPRLPRPRPRPRLWPRP,0.14

row,Sequence,shrunken log2 fold change
1,RRIRARPPRLPRPRPRPPEIPRP,0.301
2,RRIRVRPPRLPRPRPRPMRWPRP,0.0506
3,RRIRLRPPRLPRPRPRPDQYPRP,-0.014
4,RRIRPRPPRLPRPRPRPKVCPRP,0.0118
5,RRIRWRPPRLPRPRPRPWRIPRP,-0.604
6,RRIRVRPPRLPRPRPRPAAYPRP,0.00526
7,RRIRYRPPRLPRPRPRPIQSPRP,-0.00206
8,RRIRHRPPRLPRPRPRPIVVPRP,0.0062
9,RRIRYRPPRLPRPRPRPNKYPRP,-0.908
10,RRIRGRPPRLPRPRPRPTECPRP,0.267
11,RRIRLRPPRLPRPRPRPWKHPRP,-0.0177
12,RRIRCRPPRLPRPRPRPPHMPRP,1.56
13,RRIRERPPRLPRPRPRPVRWPRP,0.635
14,RRIRYRPPRLPRPRPRPNHLPRP,-1.32
15,RRIRLRPPRLPRPRPRPGVHPRP,-0.308
16,RRIRRRPPRLPRPRPRPKLHPRP,0.167
17,RRIRARPPRLPRPRPRPKSLPRP,-0.109
18,RRIRIRPPRLPRPRPRPIFAPRP,-0.0891
19,RRIRQRPPRLPRPRPRPKSQPRP,0.32
20,RRIRFRPPRLPRPRPRPARFPRP,0.1
21,RRIRHRPPRLPRPRPRPAPMPRP,0.164
22,RRIRRRPPRLPRPRPRPNDSPRP,-0.286
23,RRIRGRPPRLPRPRPRPHNQPRP,0.05
24,RRIRQRPPRLPRPRPRPGFCPRP,0.159
25,RRIRHRPPRLPRPRPRPFTMPRP,-0.349

row,Sequence,shrunken log2 fold change
1,RRIRERPPRLPRPRPRPMEYPRP,-0.00776
2,RRIRVRPPRLPRPRPRPLYVPRP,-0.705
3,RRIRTRPPRLPRPRPRPKYYPRP,-0.54
4,RRIRARPPRLPRPRPRPFPWPRP,0.477
5,RRIRWRPPRLPRPRPRPSGNPRP,-0.0162
6,RRIRSRPPRLPRPRPRPNVRPRP,-0.0771
7,RRIRRRPPRLPRPRPRPTEYPRP,0.0398
8,RRIRFRPPRLPRPRPRPMPFPRP,-0.0201
9,RRIRARPPRLPRPRPRPAKKPRP,-0.0777
10,RRIRMRPPRLPRPRPRPPKPPRP,0.717
11,RRIRDRPPRLPRPRPRPWCEPRP,-0.093
12,RRIRERPPRLPRPRPRPYTIPRP,-0.267
13,RRIRYRPPRLPRPRPRPEETPRP,-0.119
14,RRIRSRPPRLPRPRPRPHTSPRP,-0.445
15,RRIRLRPPRLPRPRPRPNLCPRP,0.119
16,RRIRQRPPRLPRPRPRPKLSPRP,0.00202
17,RRIRWRPPRLPRPRPRPPMKPRP,0.234
18,RRIRFRPPRLPRPRPRPCTNPRP,-0.598
19,RRIRHRPPRLPRPRPRPRQYPRP,-0.185
20,RRIRERPPRLPRPRPRPSAMPRP,-0.279
21,RRIRTRPPRLPRPRPRPTFGPRP,0.0406
22,RRIRQRPPRLPRPRPRPYCIPRP,-0.0416
23,RRIRLRPPRLPRPRPRPIQCPRP,-0.301
24,RRIRKRPPRLPRPRPRPERHPRP,0.105
25,RRIRQRPPRLPRPRPRPWLSPRP,0.0988

row,Sequence,shrunken log2 fold change
1,RRIRFRPPRLPRPRPRPYVGPRP,-0.108
2,RRIRCRPPRLPRPRPRPSSNPRP,-0.715
3,RRIRYRPPRLPRPRPRPIQFPRP,-0.00822
4,RRIRPRPPRLPRPRPRPIGFPRP,0.2
5,RRIRDRPPRLPRPRPRPGFYPRP,0.00794
6,RRIRRRPPRLPRPRPRPLQRPRP,0.969
7,RRIRFRPPRLPRPRPRPLKIPRP,-0.24
8,RRIRTRPPRLPRPRPRPVFLPRP,-0.56
9,RRIRTRPPRLPRPRPRPNLMPRP,-0.164
10,RRIRMRPPRLPRPRPRPDRWPRP,0.926
11,RRIRHRPPRLPRPRPRPGHCPRP,-0.133
12,RRIRHRPPRLPRPRPRPGNHPRP,-0.161
13,RRIRSRPPRLPRPRPRPDYDPRP,-0.0947
14,RRIRERPPRLPRPRPRPWLLPRP,-1.56
15,RRIRCRPPRLPRPRPRPMGIPRP,0.00755
16,RRIRVRPPRLPRPRPRPFDDPRP,-0.175
17,RRIRIRPPRLPRPRPRPHRDPRP,-0.236
18,RRIRFRPPRLPRPRPRPKDCPRP,0.104
19,RRIRMRPPRLPRPRPRPANRPRP,0.21
20,RRIRKRPPRLPRPRPRPMEDPRP,-0.00186
21,RRIRCRPPRLPRPRPRPDCGPRP,-0.169
22,RRIRARPPRLPRPRPRPVPNPRP,-0.0263
23,RRIRCRPPRLPRPRPRPDWSPRP,0.0534
24,RRIRVRPPRLPRPRPRPSRAPRP,0.152
25,RRIRHRPPRLPRPRPRPSRKPRP,0.094

row,Sequence,shrunken log2 fold change
1,RRIRQRPPRLPRPRPRPIQVPRP,-0.201
2,RRIRARPPRLPRPRPRPWIWPRP,0.111
3,RRIRWRPPRLPRPRPRPFVYPRP,-0.428
4,RRIRYRPPRLPRPRPRPPKTPRP,-0.38
5,RRIRFRPPRLPRPRPRPELSPRP,0.0455
6,RRIRGRPPRLPRPRPRPLHAPRP,1.54
7,RRIRTRPPRLPRPRPRPYTQPRP,-0.434
8,RRIRERPPRLPRPRPRPYLIPRP,-0.626
9,RRIRSRPPRLPRPRPRPRFPPRP,0.198
10,RRIRRRPPRLPRPRPRPDCCPRP,0.168
11,RRIRKRPPRLPRPRPRPENRPRP,0.246
12,RRIRQRPPRLPRPRPRPGDMPRP,-0.164
13,RRIRTRPPRLPRPRPRPYFLPRP,-1.18
14,RRIRERPPRLPRPRPRPVQWPRP,0.149
15,RRIRLRPPRLPRPRPRPQLMPRP,0.0272
16,RRIRHRPPRLPRPRPRPWLCPRP,0.111
17,RRIRERPPRLPRPRPRPLVEPRP,-0.229
18,RRIRARPPRLPRPRPRPKYTPRP,-0.013
19,RRIRRRPPRLPRPRPRPCCWPRP,0.322
20,RRIRRRPPRLPRPRPRPMTEPRP,0.0575
21,RRIRVRPPRLPRPRPRPIYFPRP,-0.23
22,RRIRERPPRLPRPRPRPCTHPRP,-1.36
23,RRIRGRPPRLPRPRPRPPFYPRP,0.397
24,RRIRRRPPRLPRPRPRPYYYPRP,-0.9
25,RRIRARPPRLPRPRPRPLTQPRP,0.209
